The data set concerns the molecule itself. Nature of the data set: 1D 1H NMR spectra at increasing protein concentration.

The record followed here is article PMC5065005 (The FEBS journal, 2016).

B1: human FBxo3 ApaG domain, residues 278–407 (domain or fragment, UniProt Q9UK99 278-407, looked up)
chain: VATTGDITVSVSTSFLPELSSVHPPHYFFTYRIRIEMSKDALPEKACQLDSRYWRITNAKGDVEEVQGPGVVGEFPIISPGRVYEYTSCTTFSTTSGYMEGYYTFHFLYFKDKIFNVAIPRFHMACPTFR
B1: the binding result is on record as “binds”.
